Laboratory results as given in article PMC4267619.

Assays:
YT521-B YTH domain [1] = biological target: T1, YT521-B YTH domain (Rattus norvegicus, UniProt Q9QY02 347-502); assay: ITC; 20 C; 410 uM RNA into 14 uM protein; 25 mM NaH2PO4, 25 mM NaCl, 10 mM beta-mercaptoethanol, pH 7; ITC and NMR titrations at 20 C, structure at 30 C
YT521-B YTH domain [2] = biological target: T1, YT521-B YTH domain; assay: ITC; 20 C; 125 uM RNA into 10 uM protein; 25 mM NaH2PO4, 25 mM NaCl, 10 mM beta-mercaptoethanol, pH 7; ITC and NMR titrations at 20 C, structure at 30 C

Binder | Kd (YT521-B YTH domain [1]) | Kd (YT521-B YTH domain [2])
UGACAC (ssRNA) [5'-UGACAC-3'] | 5000 nM | –
UGACAC (ssRNA, N6-methyladenosine at position 3) [5'-UGm6ACAC-3'] | – | 100 nM
